Measurements: patent US20260015399A1 (Boehringer Ingelheim, published 2026)
*1 amine or outer side, *2 acyl side, *3 side chain or, on linkers, in order; H or OH if unused. Side-chain parts run from the residue outwards. The star is where a group is joined. C18 diacid = O=C(O)CCCCCCCCCCCCCCCCC(=O)*; γGlu = O=C(O)[C@H](CCC(=O)[*:2])N[*:1]; Isovaleryl = CC(C)CC(=O)*; Ahx = NCCCCCC(=O)O

Target: T1, human NPY2 receptor (human, UniProt P49146 1-381)
T1 construct: whole, on cells; also called hNPY2-R; hNPY2R
T1 sequence (looked up): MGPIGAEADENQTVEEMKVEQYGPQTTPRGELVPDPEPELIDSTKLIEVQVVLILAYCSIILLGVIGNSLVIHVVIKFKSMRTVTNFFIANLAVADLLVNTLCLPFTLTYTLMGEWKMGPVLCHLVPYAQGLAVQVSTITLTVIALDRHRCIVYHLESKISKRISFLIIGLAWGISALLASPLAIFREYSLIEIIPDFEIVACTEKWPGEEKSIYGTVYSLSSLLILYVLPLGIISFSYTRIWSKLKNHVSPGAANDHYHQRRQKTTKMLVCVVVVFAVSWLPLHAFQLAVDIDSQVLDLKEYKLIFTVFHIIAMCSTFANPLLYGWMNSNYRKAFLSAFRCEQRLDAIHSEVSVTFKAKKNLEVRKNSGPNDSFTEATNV
Experiment: RLB: displacement of 125I-PYY(1-36) from hNPY2R membranes

B1: Compound 57 (peptide)
peptide: Isovaleryl-APAK([Ahx-γGlu-C18 diacid])PEEDATPEEAQRYYVSLRHYYNWLTRQRY-NH2
SMILES: CC(C)CC(=O)N[C@@H](C)C(=O)N1CCC[C@H]1C(=O)N[C@@H](C)C(=O)N[C@@H](CCCCNC(=O)CCCCCNC(=O)CC[C@H](NC(=O)CCCCCCCCCCCCCCCCC(=O)O)C(=O)O)C(=O)N1CCC[C@H]1C(=O)N[C@@H](CCC(=O)O)C(=O)N[C@@H](CCC(=O)O)C(=O)N[C@@H](CC(=O)O)C(=O)N[C@@H](C)C(=O)N[C@H](C(=O)N1CCC[C@H]1C(=O)N[C@@H](CCC(=O)O)C(=O)N[C@@H](CCC(=O)O)C(=O)N[C@@H](C)C(=O)N[C@@H](CCC(N)=O)C(=O)N[C@@H](CCCNC(=N)N)C(=O)N[C@@H](Cc1ccc(O)cc1)C(=O)N[C@@H](Cc1ccc(O)cc1)C(=O)N[C@H](C(=O)N[C@@H](CO)C(=O)N[C@@H](CC(C)C)C(=O)N[C@@H](CCCNC(=N)N)C(=O)N[C@@H](Cc1c[nH]cn1)C(=O)N[C@@H](Cc1ccc(O)cc1)C(=O)N[C@@H](Cc1ccc(O)cc1)C(=O)N[C@@H](CC(N)=O)C(=O)N[C@@H](Cc1c[nH]c2ccccc12)C(=O)N[C@@H](CC(C)C)C(=O)N[C@H](C(=O)N[C@@H](CCCNC(=N)N)C(=O)N[C@@H](CCC(N)=O)C(=O)N[C@@H](CCCNC(=N)N)C(=O)N[C@@H](Cc1ccc(O)cc1)C(N)=O)[C@@H](C)O)C(C)C)[C@@H](C)O
Ki: 2.07 nM

B2: Compound 61 (peptide)
peptide: Isovaleryl-APEK([Ahx-γGlu-C18 diacid])PPADASPEEIQRYYVSLRHYYNWLTRQRY-NH2
SMILES: CC[C@H](C)[C@H](NC(=O)[C@H](CCC(=O)O)NC(=O)[C@H](CCC(=O)O)NC(=O)[C@@H]1CCCN1C(=O)[C@H](CO)NC(=O)[C@H](C)NC(=O)[C@H](CC(=O)O)NC(=O)[C@H](C)NC(=O)[C@@H]1CCCN1C(=O)[C@@H]1CCCN1C(=O)[C@H](CCCCNC(=O)CCCCCNC(=O)CC[C@H](NC(=O)CCCCCCCCCCCCCCCCC(=O)O)C(=O)O)NC(=O)[C@H](CCC(=O)O)NC(=O)[C@@H]1CCCN1C(=O)[C@H](C)NC(=O)CC(C)C)C(=O)N[C@@H](CCC(N)=O)C(=O)N[C@@H](CCCNC(=N)N)C(=O)N[C@@H](Cc1ccc(O)cc1)C(=O)N[C@@H](Cc1ccc(O)cc1)C(=O)N[C@H](C(=O)N[C@@H](CO)C(=O)N[C@@H](CC(C)C)C(=O)N[C@@H](CCCNC(=N)N)C(=O)N[C@@H](Cc1c[nH]cn1)C(=O)N[C@@H](Cc1ccc(O)cc1)C(=O)N[C@@H](Cc1ccc(O)cc1)C(=O)N[C@@H](CC(N)=O)C(=O)N[C@@H](Cc1c[nH]c2ccccc12)C(=O)N[C@@H](CC(C)C)C(=O)N[C@H](C(=O)N[C@@H](CCCNC(=N)N)C(=O)N[C@@H](CCC(N)=O)C(=O)N[C@@H](CCCNC(=N)N)C(=O)N[C@@H](Cc1ccc(O)cc1)C(N)=O)[C@@H](C)O)C(C)C
Ki: 0.41 nM

B3: Compound 60 (peptide)
peptide: Isovaleryl-APEK([Ahx-γGlu-C18 diacid])PEEDASPEELQRYYVSLRHYYQWLTRQRY-NH2
SMILES: CC(C)CC(=O)N[C@@H](C)C(=O)N1CCC[C@H]1C(=O)N[C@@H](CCC(=O)O)C(=O)N[C@@H](CCCCNC(=O)CCCCCNC(=O)CC[C@H](NC(=O)CCCCCCCCCCCCCCCCC(=O)O)C(=O)O)C(=O)N1CCC[C@H]1C(=O)N[C@@H](CCC(=O)O)C(=O)N[C@@H](CCC(=O)O)C(=O)N[C@@H](CC(=O)O)C(=O)N[C@@H](C)C(=O)N[C@@H](CO)C(=O)N1CCC[C@H]1C(=O)N[C@@H](CCC(=O)O)C(=O)N[C@@H](CCC(=O)O)C(=O)N[C@@H](CC(C)C)C(=O)N[C@@H](CCC(N)=O)C(=O)N[C@@H](CCCNC(=N)N)C(=O)N[C@@H](Cc1ccc(O)cc1)C(=O)N[C@@H](Cc1ccc(O)cc1)C(=O)N[C@H](C(=O)N[C@@H](CO)C(=O)N[C@@H](CC(C)C)C(=O)N[C@@H](CCCNC(=N)N)C(=O)N[C@@H](Cc1c[nH]cn1)C(=O)N[C@@H](Cc1ccc(O)cc1)C(=O)N[C@@H](Cc1ccc(O)cc1)C(=O)N[C@@H](CCC(N)=O)C(=O)N[C@@H](Cc1c[nH]c2ccccc12)C(=O)N[C@@H](CC(C)C)C(=O)N[C@H](C(=O)N[C@@H](CCCNC(=N)N)C(=O)N[C@@H](CCC(N)=O)C(=O)N[C@@H](CCCNC(=N)N)C(=O)N[C@@H](Cc1ccc(O)cc1)C(N)=O)[C@@H](C)O)C(C)C
Ki: 6.04 nM

B4: Compound 62 (peptide)
peptide: Isovaleryl-APAK([Ahx-γGlu-C18 diacid])PPEDASPEELQRYYVELRHYYNWLTRQRY-NH2
SMILES: CC(C)CC(=O)N[C@@H](C)C(=O)N1CCC[C@H]1C(=O)N[C@@H](C)C(=O)N[C@@H](CCCCNC(=O)CCCCCNC(=O)CC[C@H](NC(=O)CCCCCCCCCCCCCCCCC(=O)O)C(=O)O)C(=O)N1CCC[C@H]1C(=O)N1CCC[C@H]1C(=O)N[C@@H](CCC(=O)O)C(=O)N[C@@H](CC(=O)O)C(=O)N[C@@H](C)C(=O)N[C@@H](CO)C(=O)N1CCC[C@H]1C(=O)N[C@@H](CCC(=O)O)C(=O)N[C@@H](CCC(=O)O)C(=O)N[C@@H](CC(C)C)C(=O)N[C@@H](CCC(N)=O)C(=O)N[C@@H](CCCNC(=N)N)C(=O)N[C@@H](Cc1ccc(O)cc1)C(=O)N[C@@H](Cc1ccc(O)cc1)C(=O)N[C@H](C(=O)N[C@@H](CCC(=O)O)C(=O)N[C@@H](CC(C)C)C(=O)N[C@@H](CCCNC(=N)N)C(=O)N[C@@H](Cc1c[nH]cn1)C(=O)N[C@@H](Cc1ccc(O)cc1)C(=O)N[C@@H](Cc1ccc(O)cc1)C(=O)N[C@@H](CC(N)=O)C(=O)N[C@@H](Cc1c[nH]c2ccccc12)C(=O)N[C@@H](CC(C)C)C(=O)N[C@H](C(=O)N[C@@H](CCCNC(=N)N)C(=O)N[C@@H](CCC(N)=O)C(=O)N[C@@H](CCCNC(=N)N)C(=O)N[C@@H](Cc1ccc(O)cc1)C(N)=O)[C@@H](C)O)C(C)C
Ki: 1.44 nM

B5: Compound 58 (peptide)
peptide: Isovaleryl-APEK([Ahx-γGlu-C18 diacid])PEEDATPEEVQRYYVSLRHYYNWLTRQRY-NH2
SMILES: CC(C)CC(=O)N[C@@H](C)C(=O)N1CCC[C@H]1C(=O)N[C@@H](CCC(=O)O)C(=O)N[C@@H](CCCCNC(=O)CCCCCNC(=O)CC[C@H](NC(=O)CCCCCCCCCCCCCCCCC(=O)O)C(=O)O)C(=O)N1CCC[C@H]1C(=O)N[C@@H](CCC(=O)O)C(=O)N[C@@H](CCC(=O)O)C(=O)N[C@@H](CC(=O)O)C(=O)N[C@@H](C)C(=O)N[C@H](C(=O)N1CCC[C@H]1C(=O)N[C@@H](CCC(=O)O)C(=O)N[C@@H](CCC(=O)O)C(=O)N[C@H](C(=O)N[C@@H](CCC(N)=O)C(=O)N[C@@H](CCCNC(=N)N)C(=O)N[C@@H](Cc1ccc(O)cc1)C(=O)N[C@@H](Cc1ccc(O)cc1)C(=O)N[C@H](C(=O)N[C@@H](CO)C(=O)N[C@@H](CC(C)C)C(=O)N[C@@H](CCCNC(=N)N)C(=O)N[C@@H](Cc1c[nH]cn1)C(=O)N[C@@H](Cc1ccc(O)cc1)C(=O)N[C@@H](Cc1ccc(O)cc1)C(=O)N[C@@H](CC(N)=O)C(=O)N[C@@H](Cc1c[nH]c2ccccc12)C(=O)N[C@@H](CC(C)C)C(=O)N[C@H](C(=O)N[C@@H](CCCNC(=N)N)C(=O)N[C@@H](CCC(N)=O)C(=O)N[C@@H](CCCNC(=N)N)C(=O)N[C@@H](Cc1ccc(O)cc1)C(N)=O)[C@@H](C)O)C(C)C)C(C)C)[C@@H](C)O
Ki: 3.46 nM

B6: Compound 59 (peptide)
peptide: Isovaleryl-APAK([Ahx-γGlu-C18 diacid])PEEDASPEELQRYYVQLRHYYNWLTRQRY-NH2
SMILES: CC(C)CC(=O)N[C@@H](C)C(=O)N1CCC[C@H]1C(=O)N[C@@H](C)C(=O)N[C@@H](CCCCNC(=O)CCCCCNC(=O)CC[C@H](NC(=O)CCCCCCCCCCCCCCCCC(=O)O)C(=O)O)C(=O)N1CCC[C@H]1C(=O)N[C@@H](CCC(=O)O)C(=O)N[C@@H](CCC(=O)O)C(=O)N[C@@H](CC(=O)O)C(=O)N[C@@H](C)C(=O)N[C@@H](CO)C(=O)N1CCC[C@H]1C(=O)N[C@@H](CCC(=O)O)C(=O)N[C@@H](CCC(=O)O)C(=O)N[C@@H](CC(C)C)C(=O)N[C@@H](CCC(N)=O)C(=O)N[C@@H](CCCNC(=N)N)C(=O)N[C@@H](Cc1ccc(O)cc1)C(=O)N[C@@H](Cc1ccc(O)cc1)C(=O)N[C@H](C(=O)N[C@@H](CCC(N)=O)C(=O)N[C@@H](CC(C)C)C(=O)N[C@@H](CCCNC(=N)N)C(=O)N[C@@H](Cc1c[nH]cn1)C(=O)N[C@@H](Cc1ccc(O)cc1)C(=O)N[C@@H](Cc1ccc(O)cc1)C(=O)N[C@@H](CC(N)=O)C(=O)N[C@@H](Cc1c[nH]c2ccccc12)C(=O)N[C@@H](CC(C)C)C(=O)N[C@H](C(=O)N[C@@H](CCCNC(=N)N)C(=O)N[C@@H](CCC(N)=O)C(=O)N[C@@H](CCCNC(=N)N)C(=O)N[C@@H](Cc1ccc(O)cc1)C(N)=O)[C@@H](C)O)C(C)C
Ki: 1.93 nM
